Data published in publication PMC10798858.

Target: Laa1-myc (budding yeast (S. cerevisiae)) (UniProt P39526)
Experiment: co-IP

UniProt P39526, sequence (P39526 whole entry, the tested form may be a part): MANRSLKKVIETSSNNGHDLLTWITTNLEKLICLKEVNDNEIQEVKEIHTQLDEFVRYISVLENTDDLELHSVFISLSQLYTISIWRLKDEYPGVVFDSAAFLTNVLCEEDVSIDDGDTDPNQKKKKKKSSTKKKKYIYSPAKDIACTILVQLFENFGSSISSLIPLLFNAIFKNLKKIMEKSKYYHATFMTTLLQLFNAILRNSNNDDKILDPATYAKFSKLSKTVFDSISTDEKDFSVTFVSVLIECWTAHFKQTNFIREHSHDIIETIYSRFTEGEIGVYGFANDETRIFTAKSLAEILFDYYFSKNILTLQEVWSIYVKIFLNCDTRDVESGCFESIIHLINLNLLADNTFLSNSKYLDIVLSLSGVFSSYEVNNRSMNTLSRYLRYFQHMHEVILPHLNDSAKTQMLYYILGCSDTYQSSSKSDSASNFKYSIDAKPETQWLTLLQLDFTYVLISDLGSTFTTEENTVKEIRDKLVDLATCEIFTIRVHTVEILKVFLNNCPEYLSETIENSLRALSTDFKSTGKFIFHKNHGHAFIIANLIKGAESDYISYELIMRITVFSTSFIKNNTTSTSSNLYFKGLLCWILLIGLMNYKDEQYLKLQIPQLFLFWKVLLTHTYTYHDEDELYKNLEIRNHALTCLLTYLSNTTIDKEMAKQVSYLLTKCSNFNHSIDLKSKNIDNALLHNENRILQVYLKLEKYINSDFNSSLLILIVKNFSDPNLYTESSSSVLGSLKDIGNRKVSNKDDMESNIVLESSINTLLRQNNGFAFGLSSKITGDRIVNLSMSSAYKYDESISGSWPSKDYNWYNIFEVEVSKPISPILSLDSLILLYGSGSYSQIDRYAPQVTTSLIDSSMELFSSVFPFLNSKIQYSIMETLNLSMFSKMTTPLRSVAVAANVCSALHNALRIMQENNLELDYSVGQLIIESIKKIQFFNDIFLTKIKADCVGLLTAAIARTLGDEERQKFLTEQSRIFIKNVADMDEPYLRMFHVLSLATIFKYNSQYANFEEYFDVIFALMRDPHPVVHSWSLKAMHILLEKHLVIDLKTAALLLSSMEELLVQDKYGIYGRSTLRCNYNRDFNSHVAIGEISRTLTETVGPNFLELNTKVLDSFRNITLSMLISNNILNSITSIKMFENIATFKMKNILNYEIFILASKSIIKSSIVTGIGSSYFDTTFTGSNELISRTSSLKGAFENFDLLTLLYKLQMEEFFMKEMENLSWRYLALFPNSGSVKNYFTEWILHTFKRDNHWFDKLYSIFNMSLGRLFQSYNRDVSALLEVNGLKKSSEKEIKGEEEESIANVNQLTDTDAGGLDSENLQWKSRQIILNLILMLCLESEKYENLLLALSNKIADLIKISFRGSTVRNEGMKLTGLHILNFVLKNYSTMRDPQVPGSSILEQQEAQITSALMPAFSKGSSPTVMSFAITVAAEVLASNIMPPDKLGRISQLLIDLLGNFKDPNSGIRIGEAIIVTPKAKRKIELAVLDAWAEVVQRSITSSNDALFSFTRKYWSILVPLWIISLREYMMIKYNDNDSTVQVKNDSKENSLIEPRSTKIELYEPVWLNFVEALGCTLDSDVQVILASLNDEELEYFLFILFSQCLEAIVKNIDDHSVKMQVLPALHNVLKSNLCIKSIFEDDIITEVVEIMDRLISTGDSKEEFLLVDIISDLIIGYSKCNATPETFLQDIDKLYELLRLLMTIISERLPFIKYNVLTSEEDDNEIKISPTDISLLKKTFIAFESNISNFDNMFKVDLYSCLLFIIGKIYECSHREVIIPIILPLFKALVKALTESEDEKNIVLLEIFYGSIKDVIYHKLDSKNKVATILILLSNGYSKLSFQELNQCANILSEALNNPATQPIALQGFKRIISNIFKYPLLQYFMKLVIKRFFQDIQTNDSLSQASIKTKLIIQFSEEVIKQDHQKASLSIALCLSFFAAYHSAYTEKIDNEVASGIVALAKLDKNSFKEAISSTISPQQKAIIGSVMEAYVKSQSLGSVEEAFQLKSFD

interaction with Laa1, percent of wild type (% of wild-type levels) | Substance
60 | Lft1-ΔHR3 tagged with 6-HIS-TEV-3FLAG (HTF) (from UniProt Q03703 1-340) (natural protein)
60 | Lft1-ΔHR1 tagged with 6-HIS-TEV-3FLAG (HTF) (from UniProt Q03703 1-340) (natural protein)
